# Experimental data published in the RNAGym collection of RNA variant scans (doi:10.1021/acssynbio.7b00057).
# B1: Pistol ribozyme (parent)
# chain: GGGUCGUUGUUCCAUAAUCGCGUGGAUAUGGCACGCAAGUUUCUACCGGGCACCGUAAAUGUCCGACUGGAGCCGUUCGGGCGGCUAUAAACAGACCUCAGGCCCGAAGCGUGGCGGCACCUGCCGCCGGUGGUAAAAAAGAUCGGAAGAGCACACGUCU
# Variants of: B1
# Experiment: aptazyme ON/OFF ratio, guanine; higher = stronger switching; co-transcriptional cleavage with and without guanine
row,Variant,aptazyme ON/OFF ratio
1,U8A G9U U11G C13G,1.08
2,U8A U10C U11A C13G,1.07
3,U8A U10C U11A C13A,1.17
4,U8A U10C U11A C13U,1.07
5,U8A U10G C12U C13G,1.23
6,U8A U10G C12U C13U,1.36
7,U8A U10G C12U C13A,1.32
8,U8A U10C U11C C12U C13A,1.05
9,U8A U10C U11C C12U C13G,1.06
10,U8A U10C U11C C12U C13U,1.04
11,U8A G9U U10C U11G C12U C13A,1.11
12,U8A G9U U10C U11G C12U C13G,1.14
13,U8A G9U U10C U11G C12U C13U,1.25
14,U8A U10G U11C C12U,1.04
15,U8A U10G U11C C12A,1.49
16,U8A U10G U11C C12G,1.53
17,U8A G9U U10G C13A,1.18
18,U8A G9U U10G C13U,1.55
19,U8A G9U U10G C13G,1.13
20,U8A U10A U11C C12U C13U,1.06
21,U8A U10A U11C C12U C13A,1.08

row,Variant,aptazyme ON/OFF ratio
1,U8A U10A U11C C12U C13G,1.09
2,U8A G9U U10G U11G C12G C13U,1.34
3,U8A G9U U10G U11G C12G C13A,1.05
4,U8A G9U U10G U11G C12G C13G,1.32
5,U8A G9U U10C U11G C12G,1.09
6,U8A G9U U10C U11G C12U,1.18
7,U8A G9U U10C U11G C12A,1.05
8,U8A U10A U11C C12A C13U,1.19
9,U8A U10A U11C C12A C13A,1.08
10,U8A U10A U11C C12A C13G,1.06
11,U8A G9U U11C C12G C13G,1.16
12,U8A G9U U11C C12G C13A,1.14
13,U8A G9U U11C C12G C13U,1.16
14,U8A U10G U11A C12A C13G,1.15
15,U8A U10G U11A C12A C13U,1.11
16,U8A U10G U11A C12A C13A,1.3
17,U8A U10C U11G C12A C13G,1.23
18,U8A U10C U11G C12A C13A,1.26
19,U8A U10C U11G C12A C13U,1.25
20,U8A G9U U11G C12U C13A,1.41
21,U8A G9U U11G C12U C13U,1.5

row,Variant,aptazyme ON/OFF ratio
1,U8A G9U U11G C12U C13G,1.19
2,U8A U10A C12A,1.11
3,U8A U10A C12G,1.16
4,U8A U10A C12U,1.11
5,U8A G9U U11G C12A,1.07
6,U8A G9U U11G C12U,1.51
7,U8A G9U U11G C12G,1.12
8,U8A G9U U10C U11C C12U C13A,1.04
9,U8A G9U U10C U11C C12U C13U,1.04
10,U8A G9U U10C U11C C12U C13G,1.04
11,U8A G9U U11C,1.03
12,U8A G9U U11G,1.63
13,U8A G9U U11A,1.79
14,U8A G9U U11C C12U C13U,1.16
15,U8A G9U U11C C12U C13A,1.2
16,U8A G9U U11C C12U C13G,1.06
17,U8A U10G U11G C12A,1.11
18,U8A U10G U11G C12G,1.23
19,U8A G9U U10G U11C,1.06
20,U8A G9U U10G U11G,1.09
21,U8A G9U U10G U11A,1.07

row,Variant,aptazyme ON/OFF ratio
1,U8A U10G U11C C13G,1.11
2,U8A U10G U11C C13A,1.06
3,U8A U10G U11C C13U,1.04
4,U8A G9U U10G U11A C12G C13U,1.28
5,U8A G9U U10G U11A C12G C13G,1.31
6,U8A G9U U10G U11A C12G C13A,1.27
7,U8A G9U U10G C12A C13G,1.12
8,U8A G9U U10G C12A C13U,1.5
9,U8A G9U U10G C12A C13A,1.18
10,U8A G9U U10C U11A C13A,1.06
11,U8A G9U U10C U11A C13G,1.03
12,U8A G9U U10C U11A C13U,1.17
13,U8A U10C U11C C12G C13A,1.21
14,U8A U10C U11C C12G C13U,1.11
15,U8A U10C U11C C12G C13G,1.1
16,U8A U10G C12U,1.58
17,U8A U10G C12G,1.29
18,U8A U10G C12A,1.31
19,U8A U10A U11G C12G C13G,1.15
20,U8A U10A U11G C12G C13A,1.06
21,U8A U10A U11G C12G C13U,1.27
